Experimental data taken from paper PMC10502012.

B1: TASL_(1-13) peptide R9A (peptide)
chain: MLSEGYLYAIAYL
B2: TASL_(1-13) peptide Y6A (peptide)
chain: MLSEGALYRIAYL
B3: TASL_(1-13) peptide L7A (peptide)
chain: MLSEGYAYRIAYL
B4: TASL_(1-13) peptide S3A (peptide)
chain: MLAEGYLYRIAYL
B5: TASL_(1-13) peptide Y8A (peptide)
chain: MLSEGYLARIAYL
B6: TASL_(1-13) peptide M1A (peptide)
chain: ALSEGYLYRIAYL
B7: TASL_(1-13) peptide L2A (peptide)
chain: MASEGYLYRIAYL
B8: TASL_(1-13) peptide E4A (peptide)
chain: MLSAGYLYRIAYL
B9: TASL peptide with a length of 14 residues C14A (peptide)
chain: MLSEGYLYRIAYLA
B10: sybody 27 (VHH)
VHH: QVQLVESGGGSVQAGGSLRLSCAASGDIETIWYLGWFRQAPGKEREGVAALSTVTGSTYYADSVKGRFTVSLDNAKNTVYLQMNSLKPEDTALYYCAAAYTGWMAPLWQWVYSYWGQGTQVTVSA

biological target: chicken PHT1 (purified, wild type); assay: thermal stability (thermal shift) of PHT1 with TASL peptides; conditions: chain shown with the change; peptide concentration 50 µM; parent: est. 13.6; read off a plot
Sequence (chain, as listed by the source): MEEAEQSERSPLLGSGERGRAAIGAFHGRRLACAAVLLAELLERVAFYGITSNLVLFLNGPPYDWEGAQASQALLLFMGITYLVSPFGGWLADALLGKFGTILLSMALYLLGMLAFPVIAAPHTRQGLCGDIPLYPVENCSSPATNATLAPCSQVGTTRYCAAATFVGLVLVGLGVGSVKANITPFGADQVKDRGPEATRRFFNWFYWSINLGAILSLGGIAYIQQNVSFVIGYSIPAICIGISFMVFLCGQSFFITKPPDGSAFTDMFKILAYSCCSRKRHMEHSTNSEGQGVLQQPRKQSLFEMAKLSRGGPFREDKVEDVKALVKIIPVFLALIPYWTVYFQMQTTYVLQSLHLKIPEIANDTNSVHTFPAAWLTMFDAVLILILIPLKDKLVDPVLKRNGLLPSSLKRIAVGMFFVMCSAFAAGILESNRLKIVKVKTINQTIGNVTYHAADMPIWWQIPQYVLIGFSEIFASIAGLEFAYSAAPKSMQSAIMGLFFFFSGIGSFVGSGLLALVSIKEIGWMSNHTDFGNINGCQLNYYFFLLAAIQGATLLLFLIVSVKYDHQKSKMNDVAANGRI

Binder	other: ΔTm [Kelvin]
B1	6.9
B2	11
B3	13
B4	13
B5	9.9
B6	5.1
B7	5.6
B8	0.45

same assay, conditions: chain shown with the change; peptide concentration 50 µM; read off a plot

Binder	other: ΔTm [Kelvin]
B9	15

biological target: biotinylated chicken PHT1 (BLI sample) (chicken); assay: BLI; biotinylated PHT1 on streptavidin biosensors; Sb27 6-800 nM; 22 °C; 50 mM HEPES pH 7.5, 100 mM NaCl, 0.02% DDM/0.004% CHS, 0.5% BSA; 1:1 binding model; conditions: not given
Sequence (A6QQL0 other isoform, or with tags, fused parts or gaps): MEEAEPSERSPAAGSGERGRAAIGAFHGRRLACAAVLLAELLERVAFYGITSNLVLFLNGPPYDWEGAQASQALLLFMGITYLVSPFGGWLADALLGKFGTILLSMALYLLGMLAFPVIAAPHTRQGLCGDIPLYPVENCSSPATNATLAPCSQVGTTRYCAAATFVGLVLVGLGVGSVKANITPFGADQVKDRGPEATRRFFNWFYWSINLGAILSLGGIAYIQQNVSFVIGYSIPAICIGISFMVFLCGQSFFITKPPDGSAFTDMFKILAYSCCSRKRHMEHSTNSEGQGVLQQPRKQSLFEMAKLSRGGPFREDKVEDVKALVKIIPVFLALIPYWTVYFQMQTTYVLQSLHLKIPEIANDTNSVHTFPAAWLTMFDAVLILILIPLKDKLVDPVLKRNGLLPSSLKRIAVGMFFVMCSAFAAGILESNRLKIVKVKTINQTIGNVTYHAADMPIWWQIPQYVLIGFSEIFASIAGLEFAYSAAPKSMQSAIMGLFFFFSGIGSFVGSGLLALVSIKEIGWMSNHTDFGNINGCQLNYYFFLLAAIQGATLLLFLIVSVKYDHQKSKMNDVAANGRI

Binder	Kd [µM]
B10	0.4
